First the molecules themselves.
T1: human CD19 expressed on the cell surface (human, UniProt P15391 20-556)
T1 construct: CHO cells were transfected with the full-length cDNA encoding the transmembrane form of CD19; Raji, Daudi and ARH-77 cells carry endogenous CD19; also called CD19 on Raji B tumor cells; CD19 on Daudi B tumor cells
T1 sequence: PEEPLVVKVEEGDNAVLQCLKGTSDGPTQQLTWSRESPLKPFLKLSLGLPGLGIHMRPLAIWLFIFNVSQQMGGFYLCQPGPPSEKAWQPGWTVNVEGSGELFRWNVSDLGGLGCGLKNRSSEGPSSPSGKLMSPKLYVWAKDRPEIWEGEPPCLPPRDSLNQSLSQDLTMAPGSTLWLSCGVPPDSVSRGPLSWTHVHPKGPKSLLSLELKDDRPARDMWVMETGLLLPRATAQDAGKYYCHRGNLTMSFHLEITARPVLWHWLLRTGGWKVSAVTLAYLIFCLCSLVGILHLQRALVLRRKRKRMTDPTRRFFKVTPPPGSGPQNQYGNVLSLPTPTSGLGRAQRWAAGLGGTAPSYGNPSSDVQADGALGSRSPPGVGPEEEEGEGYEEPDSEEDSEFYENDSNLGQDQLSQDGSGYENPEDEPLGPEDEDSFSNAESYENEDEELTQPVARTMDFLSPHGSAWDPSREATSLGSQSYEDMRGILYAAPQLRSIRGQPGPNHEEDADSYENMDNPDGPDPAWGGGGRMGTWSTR

B1: human monoclonal antibody 21D4 (antibody, V domains shown)
VH: EVQLVQSGAEVKKPGESLKISCKGSGYSFSSSWIGWVRQMPGKGLEWMGIIYPDDSDTRYSPSFQGQVTISADKSIRTAYLQWSSLKASDTAMYYCARHVTMIWGVIIDFWGQGTLVTVSS
VL: AIQLTQSPSSLSASVGDRVTITCRASQGISSALAWYQQKPGKAPKLLIYDASSLESGVPSRFSGSGSGTDFTLTISSLQPEDFATYYCQQFNSYPYTFGQGTKLEIK
notes: Fully human antibody from a KM mouse hybridoma, kappa light chain; also called HuMAb 21D4; parental anti-CD19 antibody 21D4
B2: human monoclonal antibody 47G4 (antibody, V domains shown)
VH: QVQLVQSGAEVKKPGSSVKVSCKDSGGTFSSYAISWVRQAPGQGLEWMGGIIPIFGTTNYAQQFQGRVTITADESTSTAYMELSSLRSEDTAVYYCAREAVAADWLDPWGQGTLVTVSS
VL: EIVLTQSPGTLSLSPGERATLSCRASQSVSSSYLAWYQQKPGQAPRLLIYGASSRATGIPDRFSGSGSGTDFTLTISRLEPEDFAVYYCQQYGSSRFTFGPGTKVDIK
notes: Human kappa antibody; It was 125I-labelled in the Scatchard assay; also called HuMAb 47G4; CD19 HuMAb 47G4
B3: human monoclonal antibody 3C10 (antibody, V domains shown)
VH: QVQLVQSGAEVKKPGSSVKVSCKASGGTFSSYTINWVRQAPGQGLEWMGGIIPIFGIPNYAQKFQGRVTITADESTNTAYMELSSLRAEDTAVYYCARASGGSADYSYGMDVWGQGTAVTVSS
VL: B1 VL with A1D, L4M, A32W, G41E, L46S, D50A, E55Q, F91Y, N92K, S93R
B4: 5G7-N19K (antibody, V domains shown)
VH: B1 VH with S30T, S32Y, D54G, R77N, H99G, T101S, I108M, F110V, L116T
VL: B1 VL with Y96W, L104V
notes: also called 5G7 with N-I-S changed to K-I-S
B5: human monoclonal antibody 13F1 (antibody, V domains shown)
VH: EVQLVQSGAEVKKPGESLQISCKGSGYTFTNYWIAWVRQMPGKGLEWMGIIYPGDSDTRYSPSFQGQVTISADKSISTAYLQWSGLKASDTAMYYCARQGYSSGWRSYYGMGVWGQGTTVTVSS
VL: B1 VL with Y96H
B6: human monoclonal antibody 5G7 (antibody, V domains shown)
VH: B1 VH with K19N, S30T, S32Y, D54G, R77N, H99G, T101S, I108M, F110V, L116T
VL: B1 VL with Y96W, L104V
modifications: N-linked carbohydrate in the variable (Fab) region at the N-I-S motif starting at position 19
B7: 5G7-N19Q (antibody, V domains shown)
VH: B1 VH with K19Q, S30T, S32Y, D54G, R77N, H99G, T101S, I108M, F110V, L116T
VL: B1 VL with Y96W, L104V
notes: Glycosylation-site variant of 5G7; also called 5G7 with N-I-S changed to Q-I-S
B8: human monoclonal antibody 21D4a (antibody, V domains shown)
VH: B1 VH
VL: B1 VL with Y96F, Q100P, L104V, E105D
notes: Same heavy chain as 21D4, paired with the second light chain made by the 21D4 hybridoma

The results in this text go back to patent publication US20100104509A1 (Bristol-Myers Squibb, published 2010).

Substitutions are numbered along the chain they refer to.

As usually defined, the Kd is the concentration at which binding is half-saturated. Read a high Kd as a looser complex. As a reminder, the EC50 (read off the curve) is the concentration at which the effect is half-maximal. A higher EC50 (read off the curve) goes with lower potency in that assay. By EC50 is commonly meant the concentration that produces a half-maximal response. A high value points to weaker potency.

The target of the first assay is T1, human CD19 expressed on the cell surface. The assay is described as follows: Scatchard analysis; 125I-labelled antibody on Raji cells, 4 °C. As for the experimental part:
Raji cells were obtained from ATCC (Accession #CCL-86) and grown in RPMI containing 10% fetal bovine serum (FBS). The cells were washed twice with RPMI containing 10% FBS at 4° C. and the cells were adjusted to 4×10⁷ cells/ml in RPMI media containing 10% fetal bovine serum (binding buffer containing 24 mM Tris pH 7.2, 137 mM NaCl, 2.7 mN KCl, 2 mM glucose, 1 mM CaCl₂, 1 mM MgCl₂, 0.1% BSA). Millipore plates (MAFB NOB) were coated with 1% nonfat dry milk in water and stored a 4° C. overnight. The plates were washed with binding buffer and 25 μl of unlabeled antibody (1000-fold excess) in binding buffer was added to control wells in a Millipore 96 well glass fiber filter plate (non-specific binding NSB). Twenty-five microliters of buffer alone was added to the maximum binding control well (total binding). […] The plates were incubated for 2 hours at 200 RPM on a shaker at 4° C. At the completion of the incubation the Millipore plates were washed three times with 0.2 ml of cold wash buffer (24 mM Tris pH 7.2, 500 mM NaCl, 2.7 mN KCl, 2 mM glucose, 1 mM CaCl₂, 1 mM MgCl₂, 0.1% BSA). The filters were removed and counted in a gamma counter. Evaluation of equilibrium binding was performed using single site binding parameters with the Prism software (San Diego, Calif.).
B1 showed an equilibrium dissociation constant (Kd) of approximately 2.14 nM.
On the same count and under the same terms, the same measure for B2: approximately 12 nM.

The next assay has the same target. The experiment in a line: Flow cytometry on CHO cells transfected with human CD19, GMFI. As for the experimental part:
(§1) Binding of the CD19 HuMAbs by flow cytometry to the B cell tumor lines Raji and Daudi, or to a CHO-CD19 transfected cell line was assessed. CHO cells were transfected with an expression plasmid containing the full length cDNA encoding the transmembrane form of CD19. […] A known murine anti-CD19 antibody was used as a positive control. The cells were washed and detected by either a phycoerythrin-labeled anti-human or anti-mouse secondary antibody and analyzed by flow cytometry. The results for binding to the CHO-CD19 cell line, Daudi B cell line, Raji B cell line and an expanded binding set against the Raji B cell line are shown in FIGS. 25A, 25B, 25C and 25D, respectively. […] All results are shown as measured by the geometric mean fluorescent intensity (GMFI) of staining.
On to B1, for which the concentration for a half-maximal effect (EC50 (read off the curve)) was approximately 0.1 µg/mL.

The next assay has the same target. The experiment in a line: Raji direct binding FACS, Geo Mean; unit from the concentration axis. The method, then:
as §1
Molecule B3 had a concentration for a half-maximal effect (EC50) of 0.24 µg/mL.
With B4, the EC50 stood at 0.224 µg/mL.
B5 gave a half-maximal effective concentration (EC50) of 0.266 µg/mL.
Still for that read-out and setting: the same measure for B6: 0.188 µg/mL.
Take B7: it took 0.217 µg/mL to reach a half-maximal effect (EC50).
B1: the EC50 was 0.141 µg/mL.
The same measure, in the same setting: the same measure for B8: 0.129 µg/mL.

For the next assay the target is unchanged. The experiment in a line: FACS competition on Raji cells: unlabeled antibody titrated against biotinylated 21D4 at 0.3 ug/mL, Geo Mean (PE); unit from the concentration axis.
With B3, the response was half-maximal at 0.628 nM (EC50).
Same read-out and setting: the same measure for B4: 2.1 nM; for B5: 1.99 nM.
Same read-out and setting: the same measure for B6: 2.45 nM; for B7: 2.16 nM.
On the same count and under the same terms, in the case of B1 it was 0.655 nM.
The molecule B8 showed an EC50 of 0.694 nM.

Another assay shares this target. The experiment in a line: FACS competition on Raji cells: unlabeled antibody titrated against biotinylated 21D4a at 0.3 ug/mL, Geo Mean (PE); unit from the concentration axis.
Take B3: a half-maximal effect (EC50) was put at 0.686 nM.
Still for that read-out and setting: in the case of B4 it was 2.38 nM.
B5 registered a half-maximal effective concentration (EC50) of 1.97 nM.
On the same count and under the same terms, the same measure for B6: 2.85 nM; for B7: 2.63 nM; for B1: 0.832 nM.
On the same count and under the same terms, in the case of B8 it was 0.767 nM.
